For one data set, the system named is HCT116 cells. As to the kind of experiment: Mitochondrial DNA quantification by real-time PCR. Conditions: 1 day, via SIRT3 and PKCα. The data set is classed as cell-based, human. Here is the method:
FIGS. 4A, 4B, 4C, 4D and 4E show HCT116 cell death by rATRAM-GRA8-M/AS-induced mitochondrial activation [(A and B) HCT116 cells were incubated with WT rGRA8 or rATRAM-GRA8-M/AS and its mutants for indicated times, and then cell viability was measured with an MTT assay. […] The cells were stimulated with rATRAM-GRA8-M/AS for 1 day and subjected to enzymatic activity of OXPHOS V, and (C) MitoTracker fluorescence signals were assessed by flow cytometry. (D) A bar graph indicates a mitochondrial mass (MFI), and (E) the mtDNA content of BMDM was measured by quantitative real-time PCR. The mtDNA content was normalized by nuclear DNA. Significant differences were determined by comparison with control treatment (** P<0.01; *** P<0.001). Data represents five independent experiments with similar results].
To quantify the copy number of mitochondrial DNA (mtDNA), by the method described in Autophagy. 2014; 10:785-802: The AMPK-PPARGC1A pathway is required for antimicrobial host defense through activation of autophagy, an mtDNA to nuclear DNA (nDNA) ratio was measured. Pyruvate kinase (Pklr) was used as a marker for nDNA and NADH dehydrogenase subunit 1 (mt-Nd1) was used as a marker for mtDNA. A real-time PCR reaction was performed according to the manufacturer's instructions (QuantiFast SYBR green PCR master mix; Qiagen, 204052), and temperature cycling was performed in QuantStudio™ 3 (ABI). […]

In another data set the test system is ATP5A1, SIRT3 and ATP5C1. Kind of data set: Target binding and OXPHOS profile in xenograft tumor lysates. The data set is classed as in vivo, nude mouse. Conditions: day 15. Here is the method: The length and width of a tumor were measured using calipers every third day for 30 days. On day 15 after administration, the mice were euthanized, and the interaction with GRA8, acetylation levels of ATP5A1 or expression of OXPHOS was analyzed (A, lower). The representative images of tumors from mice treated with rATRAM-GRA8-M/AS or mutants on day 15 (right). […] Significant differences (* P<0.05; ** P<0.01; *** P<0.001) were determined by comparison with rVector. Each group included 10 mice. Data represents two independent experiments with similar results],
For immunoprecipitation, cells were obtained, and then lysed in an NP-40 buffer supplemented with a complete protease inhibitor cocktail (Roche). After pre-purification with A/G agarose beads at 4° C. for 1 hour, a whole cell lysate was used for immunoprecipitation with indicated antibodies. Generally, 1 to 4 μg of commercial antibodies were added to 1 ml of the cell lysate, and incubated at 4° C. for 8 to 12 hours. After the addition of the protein A/G agarose beads for 6 hours, the immunoprecipitate was washed with a lysis buffer several times and heated for 5 minutes to be eluted with an SDS loading buffer.
For immunoblotting, polypeptides were subjected to electrophoresis (PAGE) with an SDS-polyacrylamide gel, and then transferred to a PVDF membrane (Bio-Rad) for separation. Immunodetection was performed with a specific antibody. Antibody binding was visualized by chemiluminescence (ECL; Millipore) and detected by a Vilber chemiluminescence analyzer (Fusion SL 3; Vilber Lourmat).

The test system of the next data set is HCT116 xenografts. As to the kind of experiment: HCT116 xenograft mouse model, antitumor activity. The data set is classed as in vivo, nude mouse.
The nature of data set [1]: Serum cytokine response in tumor-bearing mice. Here is the method: Immunoblotting was performed with anti-PKCα, anti-ATP5A1, anti-SIRT3 or anti-actin. […] (B) The schematic diagram of a xenograft model treated with rVector (upper). HCT116-expressing ATP5A1 WT and mutant cells were subcutaneously injected into the flank of nude mice. […] Each group included 10 mice. […] (C) Humoral immune responses in BALB/C mice. The mice were immunized via each route (intravenous injection or intraperitoneal injection) every third day, and subjected to blood collection on day 40. […] The values are expressed as mean±standard deviation for absorbance (OD) at 450 nm. Each group included five mice. (D) Cytokine response for rATRAM-GRA8-M/AS in tumor-bearing mice. As described in the method section, HCT116 cells were subcutaneously injected into the flank of a BALB/c mouse. A serum cytokine level was measured on day 30 after administration. Each group included 10 mice.
Since immunogenicity is closely related with safety and efficacy, it is one of the critical factors for development of therapeutic proteins. Therefore, by monitoring the production of antibodies against rATRAM-GRA8-M/AS in immunized mice, the immunogenicity of rATRAM-GRA8-M/AS was investigated. After three consecutive injections of rATRAM-GRA8-M/AS, a level of IgG antibody was analyzed using enzyme-linked immunosorbent assay (ELISA).

Setting [2] is: BALB/c mice, versus negative control.

B1: (GLAGLAGLLGLEGLLGLPLGLLEGLWLGLELEGN)2-GG-ATATTTTTTR-GG-YRFTVQTTQN (protein)
chain: GLAGLAGLLGLEGLLGLPLGLLEGLWLGLELEGNGLAGLAGLLGLEGLLGLPLGLLEGLWLGLELEGNGGATATTTTTTRGGYRFTVQTTQN
modifications: His tag; rATRAM-G8-M/AS
Regarding B1, the “mitochondrial DNA content” value in the data set with HCT116 cells is reported as “enhanced”. Further, in the data set with ATP5A1, SIRT3 and ATP5C1, the “ATP5A1 deacetylation level in tumor lysates” value is listed as “increased”; the “binding of rGRA8 to ATP5A1, SIRT3 and ATP5C1 in vivo” value was “significantly increased”; the “mitochondrial protein biosynthesis level in tumor lysates” value is on record as “increased”. The “growth of tumors which started to initially grow” value with HCT116 xenografts (20 μg/kg, intraperitoneal injection (FIG. 6A)) is “inhibited the growth of tumors”. In addition, the “growth of actively growing tumors” value in the data set on HCT116 xenografts (20 μg/kg, intraperitoneal injection (FIG. 6B)) was “inhibited the growth”. In addition, the “fold improvement of IC50 compared with rGRA8 (anti-tumor activity)” value with HCT116 xenografts (HCT116 xenograft) is on record as 500 fold. Besides, the “IC50 (antitumor activity in xenograft)” value in the data set with HCT116 xenografts (HCT116 xenograft mice, intraperitoneal) worked out at 20 µg/kg. Also, the “tumor size and tumor growth” value in the data set on HCT116 xenografts (HCT116 xenograft, effect dependent on PKCα, SIRT3, ATP5A1 and acetylation state of K506 and K531) was “a decrease in tumor size and delayed tumor growth”. Also, the “fold improvement of IC50 compared with rGRA8 (anti-tumor activity)” value with HCT116 xenografts (HCT116 xenograft, listed as rATRAM-G8-M/AS) is listed as “approximately 500 fold”. Also, in data set [1] (setting [2]), the “serum IL-1β level” value is “almost similar to that of the negative control”, the “serum IL-6 level” value is “almost similar to that of the negative control” and the “serum TNF-α level” value is on record as “almost similar to that of the negative control”. Besides, the “production of inflammatory cytokines” value in data set [1] (tumor-bearing mice, serum, day 30) is recorded as “negligible”.

Values taken from patent US11492376B2, “Toxoplasma gondii GRA8-derived recombinant peptides and composition for preventing or treating cancer comprising the same” (Industry—University Cooperation Foundation Hanyang …, priority 2019, dated 2022).
